Measured values reported in US20220323583A1, “Pharmaceutical Formulations of Bi-Specific Diabodies and Use of the Same” (MacroGenics, Inc., priority 2019, published 2022).

Legend:
Human CD3ε/δ = Human CD3ε/δ (Homo sapiens, UniProt P07766); assay: Binding of DART-A to CD3 (ka, kd, KD)
Kasumi-3 = assay: Redirected killing of target cell line; type: cell-based, human
THP-1 = assay: Redirected killing of target cell line; type: cell-based
RS4-11 = assay: Redirected killing of target cell line; type: cell-based
U937 cells = assay: Activity against CD123-negative targets; type: cell-based
[1] = test system: primary ALL bone marrow samples; assay: Incubation of primary ALL bone marrow samples with DART-A; type: cell-based, human; conditions: vs untreated control or Control DART
Excerpt: (§1) Upregulation of granzyme B and perforin levels in both CD8 and CD4 T cells was observed.

CD123+ cells = assay: DART-A infusion in cynomolgus monkeys; type: in vivo
Excerpt: as §1
A decrease in circulating T cells also occurred, but recovered to baseline before the subsequent infusion in monkeys on the 4-day dose schedule, consistent with DART-A-mediated mobilization.

[2] = SE-HPLC (protein aggregation: % main peak, % HMW, % LMW); type: physicochemical; conditions: for FLR SE-HPLC % HMW / FLR SE-HPLC % LMW / FLR SE-HPLC % Main Peak: 0.1 mg/mL solution, Stabilizer 2
Method: (§2) FLR SE-HPLC analysis was performed to measure protein purity, monomer purity and protein stability. The FLR SE-HPLC configuration included a fluorescence (FLR) detector (λX=280 nm, λE=340 nm), a mobile phase composition of 350 mM Mobile Phase (175 mMNaH2PO4, 175 mMNa2SO, pH 6.3) and a TosoBio TSK G3000SWXL size exclusion column. Samples were diluted to 0.1 mg/mL and stored at 5±3° C. for 24 to 96 hours prior to analysis. Eight μg of protein (or 100 μL is sample concentration was below 0.1 mg/mL) was injected for each 30-minute run. HMW and LMW species and monomer peaks were monitored.

[3] = Differential scanning calorimetry (DSC), thermal stability; type: physicochemical; conditions: DP buffer with or without PS80 (150 mM NaCl, 10 mM sodium phosphate, pH 6.0)
Method: Differential Scanning calorimetry measures the energetics of protein unfolding during a temperature ramp. Peaks represent apparent melting temperatures and the area under the peaks represent the enthalpy of the thermal transition. Data were collected for duplicate samples over 20° C. to 90° C. range using temperature ramp rate of 60° C./hour.

[4] = biological target: T1, recombinant Interleukin 3 Receptor (rhIL3-R) (Homo sapiens, UniProt P26951); assay: CD123 binding ELISA (relative potency); conditions: Relative Potency vs DART-A reference standard, 1250 ng/mL dosing solution, Stabilizer 2
T1 construct: The soluble IL3R was coated on the surface of an ELISA plate
T1 sequence (P26951 19-305 limits assumed): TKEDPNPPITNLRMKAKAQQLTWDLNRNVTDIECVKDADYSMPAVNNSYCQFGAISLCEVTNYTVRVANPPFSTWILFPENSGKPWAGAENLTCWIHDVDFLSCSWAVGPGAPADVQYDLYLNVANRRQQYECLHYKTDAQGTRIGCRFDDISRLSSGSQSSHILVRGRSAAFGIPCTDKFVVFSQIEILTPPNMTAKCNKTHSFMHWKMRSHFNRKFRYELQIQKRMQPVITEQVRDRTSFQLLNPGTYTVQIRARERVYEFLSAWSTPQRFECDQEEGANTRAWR
Excerpt: The soluble IL3R was coated on the surface of an ELISA plate. […] Quantification of bound probe antibody was achieved by addition of a colorimetric AP substrate (AP-Yellow 1 Component Substrate). Oxidation of AP-Yellow by AP yields a colored product that can be read at 405±10 nm. The assay was quantified by the intensity of color, measured using a spectrophotometer set to an optimal wavelength of 405±10 nm. Data were fitted to a four-parameter model with the following variable constraints: the maximum, minimum and slope of each dose response curve is set to be shared between all dose response curves on the plate; the EC50 was determined independently for each curve.

[5] = FLR SE-HPLC protein recovery (monomer peak area); type: physicochemical
Method: Four levels of PS80 were tested during this study to evaluate the blocking activity of the surfactant. Briefly, test stabilizer solutions (10 mM sodium phosphate at pH 6.0, 150 mM sodium chloride, 1.6 mg/mL BA and 0, 0.05, 0.1, or 0.2 mg/mL PS80) were added to a normal saline containing IV bag. After thorough mixing, the DART-A DP formulation was added to the same IV bag. The bag containing the dosing solution was incubated at 25±2° C. and samples were collected at 0, 24 and 48 hours (the longest proposed administration time). Each sample was analyzed using FLR/SE-HPLC and verified using ELISA to quantify DART-A protein recovery.
For both low and high concentration infusions, samples were collected at 24, 48, and 72 hours from sampling point #5. […] The data was calculated against the expected TO sample to obtain the DART-A recovery. […] Similar to other binding ELISA assays, these ranges are within the typical variation of this type of bioassay (50%-150%).
as §2

Osmolality = type: physicochemical; conditions: Stabilizer 2
[6] = Post Infusion (Infusion Time = 96 Hrs)
[7] = Post Storage (Time = 72 Hrs), room temperature

Sequence of Human CD3ε/δ (P07766 23-126 limits assumed): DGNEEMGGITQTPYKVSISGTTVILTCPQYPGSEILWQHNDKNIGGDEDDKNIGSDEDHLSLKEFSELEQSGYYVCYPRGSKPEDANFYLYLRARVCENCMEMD
Sequence of Human CD3ε/δ (P04234 22-105 partner limits assumed): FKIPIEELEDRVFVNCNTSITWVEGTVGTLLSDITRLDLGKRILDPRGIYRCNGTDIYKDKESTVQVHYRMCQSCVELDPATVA

B1: DART-A: sequence-optimized CD123×CD3 bispecific diabody; chains SEQ ID NO:42 and SEQ ID NO:44 covalently bonded by a disulfide bond (protein)
chain 1: QAVVTQEPSLTVSPGGTVTLTCRSSTGAVTTSNYANWVQQKPGQAPRGLIGGTNKRAPWTPARFSGSLLGGKAALTITGAQAEDEADYYCALWYSNLWVFGGGTKLTVLGGGGSGGGGEVQLVQSGAELKKPGASVKVSCKASGYTFTDYYMKWVRQAPGQGLEWIGDIIPSNGATFYNQKFKGRVTITVDKSTSTAYMELSSLRSEDTAVYYCARSHLLRASWFAYWGQGTLVTVSSGGCGGGEVAALEKEVAALEKEVAALEKEVAALEK
chain 2: DFVMTQSPDSLAVSLGERVTMSCKSSQSLLNSGNQKNYLTWYQQKPGQPPKLLIYWASTRESGVPDRFSGSGSGTDFTLTISSLQAEDVAVYYCQNDYSYPYTFGQGTKLEIKGGGSGGGGEVQLVESGGGLVQPGGSLRLSCAASGFTFSTYAMNWVRQAPGKGLEWVGRIRSKYNNYATYYADSVKDRFTISRDDSKNSLYLQMNSLKTEDTAVYYCVRHGNFGNSYVSWFAYWGQGTLVTVSSGGCGGGKVAALKEKVAALKEKVAALKEKVAALKE
modifications: interchain disulfide bond; First Polypeptide Chain of DART-A; Second Polypeptide Chain of DART-A
Human CD3ε/δ
  ka (± SD): 5.7 (± 0.6) × 10^5 M^−1s^−1
  kd (± SD): 5.0 (± 0.9) × 10^−3 s^−1
Human CD3ε/δ; read-out: KD (± SD)
  Kd: 9 ± 2.3 nM
Kasumi-3
  Max % Killing: 94%
THP-1
  Max % Killing: 40%
RS4-11
  Max % Killing: 60%
U937 cells
  activity against CD123-negative targets: No activity
[1]
  leukemic cell population: depletion of the leukemic cell population over time
CD123+ cells; DART-A-treated animals
  levels of cytokines interferon-gamma, TNF-alpha, IL-6, IL-5, IL-4 and IL-2: No elevation
CD123+ cells; as little as 10 ng/kg DART-A
  pDC depletion after infusion: depleted as early as 4 days post infusion
CD123+ cells; infused 4 or 7 days a week, weekly escalating doses
  circulating CD123+ cells: depletion of circulating CD123+ cells 72 h after treatment initiation
CD123+ cells; infused 4 or 7 days a week, weekly escalating doses, 4 weeks
  Toxicity: limited to a minimal transient release of cytokines
[2]; 0.1 mg/mL in Stabilizer 2 dosing solution, 72-hour RT storage and administration
  SE-HPLC species: no changes in the LMW and LMW
[2]; [6]
  FLR SE-HPLC % HMW: 0.9%
  FLR SE-HPLC % LMW: 0.9%
  FLR SE-HPLC % Main Peak: 98.2%
[2]; [7]
  FLR SE-HPLC % HMW: 0.8%
  FLR SE-HPLC % LMW: 0.9%
  FLR SE-HPLC % Main Peak: 98.4%
[2]; T = 0 Hrs
  FLR SE-HPLC % HMW: 0.8%
  FLR SE-HPLC % LMW: 0.9%
  FLR SE-HPLC % Main Peak: 98.4%
[3]
  melting temperature (Tm), DSC: 64 °C
[4]; Post Infusion (Infusion Time = 48 Hrs)
  % Potency, CD123 binding: 123%
[4]; Post Storage (T = 72 Hrs), room temperature
  % Potency, CD123 binding: 140%
[4]; T = 0
  % Potency, CD123 binding: 146%
[5]; Study 1, Stabilizer 1, dual-pump infusion RT, High (5000 ng/mL), Expected or Control (T0)
  DART-A Monomer Peak Area in SE-HPLC FLR: 1814623 EU * min
[5]; Study 1, Stabilizer 1, dual-pump infusion RT, High (5000 ng/mL), T = 24 hours
  DART-A Monomer Peak Area in SE-HPLC FLR: 1483536 EU * min
[5]; Study 1, Stabilizer 1, dual-pump infusion RT, High (5000 ng/mL), T = 48 hours
  DART-A Monomer Peak Area in SE-HPLC FLR: 1792023 EU * min
[5]; Study 1, Stabilizer 1, dual-pump infusion RT, High (5000 ng/mL), T = 72 hours
  DART-A Monomer Peak Area in SE-HPLC FLR: 1804667 EU * min
[5]; Study 1, Stabilizer 1, dual-pump infusion RT, Low (100 ng/mL), Expected or Control (T0)
  DART-A Monomer Peak Area in SE-HPLC FLR: 46006 EU * min
[5]; Study 1, Stabilizer 1, dual-pump infusion RT, Low (100 ng/mL), T = 24 hours
  DART-A Monomer Peak Area in SE-HPLC FLR: 37026 EU * min
[5]; Study 1, Stabilizer 1, dual-pump infusion RT, Low (100 ng/mL), T = 48 hours
  DART-A Monomer Peak Area in SE-HPLC FLR: 44708 EU * min
[5]; Study 1, Stabilizer 1, dual-pump infusion RT, Low (100 ng/mL), T = 72 hours
  DART-A Monomer Peak Area in SE-HPLC FLR: 49122 EU * min
[5]; Study 2, Stabilizer 1, cassette 25° C., 100 rpm, High (5000 ng/mL), T = 0
  DART-A Monomer Peak Area in SE-HPLC FLR: 41031471 EU * min
[5]; Study 2, Stabilizer 1, cassette 25° C., 100 rpm, High (5000 ng/mL), T = 24 hours
  DART-A Monomer Peak Area in SE-HPLC FLR: 40529514 EU * min
[5]; Study 2, Stabilizer 1, cassette 25° C., 100 rpm, High (5000 ng/mL), T = 48 hours
  DART-A Monomer Peak Area in SE-HPLC FLR: 41438367 EU * min
[5]; Study 2, Stabilizer 1, cassette 25° C., 100 rpm, High (5000 ng/mL), T = 72 hours
  DART-A Monomer Peak Area in SE-HPLC FLR: 41582544 EU * min
[5]; Study 2, Stabilizer 1, cassette 25° C., 100 rpm, Low (100 ng/mL), T = 0
  DART-A Monomer Peak Area in SE-HPLC FLR: 355660 EU * min
[5]; Study 2, Stabilizer 1, cassette 25° C., 100 rpm, Low (100 ng/mL), T = 24 hours
  DART-A Monomer Peak Area in SE-HPLC FLR: 379757 EU * min
[5]; Study 2, Stabilizer 1, cassette 25° C., 100 rpm, Low (100 ng/mL), T = 48 hours
  DART-A Monomer Peak Area in SE-HPLC FLR: 377121 EU * min
[5]; Study 2, Stabilizer 1, cassette 25° C., 100 rpm, Low (100 ng/mL), T = 72 hours
  DART-A Monomer Peak Area in SE-HPLC FLR: 394028 EU * min
[5]; Study 3, Stabilizer 1, cassette 37° C., 100 rpm, Low (100 ng/mL), T = 0
  DART-A Monomer Peak Area in SE-HPLC FLR: 397095 EU * min
[5]; Study 3, Stabilizer 1, cassette 37° C., 100 rpm, Low (100 ng/mL), T = 72 hours
  DART-A Monomer Peak Area in SE-HPLC FLR: 368950 EU * min
[5]; Study 3, Stabilizer 1, cassette 37° C., 100 rpm, second group, target concentration not given, T = 0
  DART-A Monomer Peak Area in SE-HPLC FLR: 41031489 EU * min
[5]; Study 3, Stabilizer 1, cassette 37° C., 100 rpm, second group, target concentration not given, T = 72 hours
  DART-A Monomer Peak Area in SE-HPLC FLR: 39005201 EU * min
Osmolality; 10 ng/mL dosing solution, Post Infusion (Infusion Time = 48 Hrs)
  Osmolality: 274 mOsm/kg
Osmolality; 10 ng/mL dosing solution, Post Storage (T = 72 Hrs), room temperature
  Osmolality: 275 mOsm/kg
Osmolality; 10 ng/mL dosing solution, T = 0
  Osmolality: 275 mOsm/kg
Osmolality; 20 ng/mL dosing solution, Post Infusion (Infusion Time = 96 Hrs)
  Osmolality: 276 mOsm/kg
Osmolality; 20 ng/mL dosing solution, Post Storage (T =72 Hrs), room temperature
  Osmolality: 276 mOsm/kg
Osmolality; 20 ng/mL dosing solution, T = 0
  Osmolality: 276 mOsm/kg
Osmolality; 1250 ng/mL dosing solution, Post Infusion (Infusion Time = 48 Hrs)
  Osmolality: 276 mOsm/kg
Osmolality; 1250 ng/mL dosing solution, Post Storage (T = 72 Hrs), room temperature
  Osmolality: 275 mOsm/kg
Osmolality; 1250 ng/mL dosing solution, T = 0
  Osmolality: 275 mOsm/kg
